This series deals with the molecule itself. The experiment in a line: anti-HA immunoblot of lysates of transfected HEK293T cells; band at 2x the expected size (homodimer). The protocol:
FIGS. 35A-35C depict protein expression of MG153 GII derived RTs by immunoblots. Cells were transfected with plasmids containing the candidate RTs and protein expression was evaluated by immunoblot, detecting the HA peptide fused to the N termini of the RTs. All lanes were normalized to total protein concentration. White arrows point to bands at 2× the expected molecular size of the protein, which indicate protein dimers. Lanes not relevant for the described experiment in FIGS. 35A and 35B are covered by white boxes. FIG. 35C: Multiple sequence alignment of GII derived RT. The region shown corresponds to positions 196 through 201 of the alignment. The dimerization motif CAQQ (SEQ ID NO: 2267) is highlighted.
In order to understand protein expression and stability of the GII RTs in mammalian cells, immunoblots were performed. Briefly, transfected cells were lysed with RIPA lysis buffer supplemented with protease inhibitors (80 μL per well in a 24 well format). The lysate was centrifuged at 14,000 g for 10 min at 4° C. in order to remove insoluble aggregates. Proteins were quantified using BCA. […] Proteins were detected by using a rabbit HA antibody, using an HRP-based detection method. […] The expression of each protein was quantified and cDNA synthesis activity was normalized to total protein expression: seven MG153 RTs outperformed the TGIRT control (FIG. 36).
(In general: Immunoblotting shows a protein as a band on a membrane.)

B1: MG153-9 (enzyme)
chain: MESYLTQDRAEPEAGCGANSVSDTEGDGRTVQHDLVEEVVSWSNLEAALKQVVSNRGAPGVDGMTVDELGPWLETNYSELAEKVRNGRYRPNPVRRKEIPKPNGGVRDLGIPTVVDRLLQQAVSQVLMPIYEPSFSDTSYGFRPGRSAHDAIQKAKEYLSEGFGYVVDLDLARFFDTLNQDYLMNILRERVRDKALLELIKRFLRSGVVLPNGLLRETREGSPQGGPLSPLLSNIYLDRFDKLLESRGLRFVRYADDCLVFVRTPRAGERVRESVTRYLEGTLRLRVNQEKTVVGRADQVKFLGFRLYRQKTVGATVHDSSLARFRKEVRRITKRNRGTSLGSVLTELKTFTRGWVGYFRIGLSKSRAEKLDGWIRQRVRQYIFKQWKTLRNRASQLVSLCPDYLRPRPGFTPYSWVRECRRAAFSRSYWKAVNYPVVKRALSNSYLAGLGLYSLSEQLEKWNKGV
notes: Group II intron class C RT, expressed in HEK293T cells as a Flag-HA-MCP fusion (expected 72 kDa including the tag); not shown: N-terminal Flag-HA-MCP tag
As for B1, the binding result was “binds”.

B2: MG153-4 (enzyme)
chain: MDTSSLMEQILSKENLNEAYLQVVRNKGAAGVDGMSVEELGPYLSENGENIREQMRTRKYKPQPVRRVEIPKPDGGVRNLGVPTVVDRFVQQAVAQVLSPIFEEQFHDHSYGFRPNRCAQQAVLKALEMMNDGHNWIVDIDLAKFFDTVDHDKLMTIFGRTIKDGDVISLVRKFLVSGVMIDDEYEDTIVGTPQGGNISPLLANIMLNELDKELEARGLDFVRYADDLIIMVGSRQAAERVMKSVTRFIENKLGLKVNAEKSRVDKPKGIKYLGFGFYFDSFAKGYKARPHMKAVEKFKEQMKKLTCRSWGVSNTYKVKKLNQLIRGWINYFKIGSMKNLCRKLDAHIRFRLRMCIWKQWKTPKNREKNLIKLGLPRYAAHGISYAKGYARVCRSWNLHISISKERLAKFGLISMEDYYAERRVTC
notes: Group II intron class C RT, expressed in HEK293T cells as a Flag-HA-MCP fusion (expected 67.6 kDa including the tag); not shown: N-terminal Flag-HA-MCP tag
As for B2, the binding result is recorded as “binds”.
